In publication PMC10397247:

Assays:
O8 = target: T1, O8; assay: two-hybrid library CCNG1;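 note: natural log of median RNA to DNA barcode read ratio; higher means stronger binding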
T1 chain: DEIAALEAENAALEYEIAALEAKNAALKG

P3A-bS = target: T2, P3A-bS; assay: two-hybrid library CCNG1;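 note: natural log of median RNA to DNA barcode read ratio; higher means stronger binding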
T2 chain: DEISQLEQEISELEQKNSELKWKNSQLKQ

O4 = target: T3, O4; assay: two-hybrid library CCNG1;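 note: natural log of median RNA to DNA barcode read ratio; higher means stronger binding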
T3 chain: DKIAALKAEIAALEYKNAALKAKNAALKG

O16 = target: T4, O16; assay: two-hybrid library CCNG1;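 note: natural log of median RNA to DNA barcode read ratio; higher means stronger binding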
T4 chain: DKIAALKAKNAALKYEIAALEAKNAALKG

O2 = target: T5, O2; assay: two-hybrid library CCNG1;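 note: natural log of median RNA to DNA barcode read ratio; higher means stronger binding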
T5 chain: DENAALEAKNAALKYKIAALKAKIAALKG

O7 = target: T6, O7; assay: two-hybrid library CCNG1;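 note: natural log of median RNA to DNA barcode read ratio; higher means stronger binding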
T6 chain: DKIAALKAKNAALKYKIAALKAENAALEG

O11 = target: T7, O11; assay: two-hybrid library CCNG1
T7 chain: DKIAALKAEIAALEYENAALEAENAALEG

O12 = target: T8, O12; assay: two-hybrid library CCNG1
T8 chain: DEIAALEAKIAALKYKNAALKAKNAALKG

O5 = target: T9, O5; assay: two-hybrid library CCNG1
T9 chain: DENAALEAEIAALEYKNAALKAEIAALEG

O15 = target: T10, O15; assay: two-hybrid library CCNG1
T10 chain: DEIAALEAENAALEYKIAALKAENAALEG

O6 = target: T11, O6; assay: two-hybrid library CCNG1
T11 chain: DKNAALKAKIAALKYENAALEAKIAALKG

O14 = target: T12, O14; assay: two-hybrid library CCNG1
T12 chain: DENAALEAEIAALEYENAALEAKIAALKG

O3 = target: T13, O3; assay: two-hybrid library CCNG1
T13 chain: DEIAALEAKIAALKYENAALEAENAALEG

O13 = target: T14, O13; assay: two-hybrid library CCNG1
T14 chain: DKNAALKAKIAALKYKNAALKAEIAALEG

O9 = target: T15, O9; assay: two-hybrid library CCNG1
T15 chain: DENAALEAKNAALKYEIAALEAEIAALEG

4H1405-AA = target: T16, 4H1405-AA; assay: two-hybrid library CCmax; settings: mean of both orientations
T16 chain: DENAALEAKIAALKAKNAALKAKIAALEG

4H3922-AA = target: T17, 4H3922-AA; assay: two-hybrid library CCmax; settings: mean of both orientations
T17 chain: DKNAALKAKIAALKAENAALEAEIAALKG

4H2211-AA = target: T18, 4H2211-AA; assay: two-hybrid library CCmax; settings: mean of both orientations
T18 chain: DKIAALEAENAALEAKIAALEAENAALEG

4H662-AA = target: T19, 4H662-AA; assay: two-hybrid library CCmax; settings: mean of both orientations
T19 chain: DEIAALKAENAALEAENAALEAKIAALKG

4H2238-AA = target: T20, 4H2238-AA; assay: two-hybrid library CCmax; settings: mean of both orientations
T20 chain: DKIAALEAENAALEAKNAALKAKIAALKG

4H481-AA = target: T21, 4H481-AA; assay: two-hybrid library CCmax; settings: mean of both orientations
T21 chain: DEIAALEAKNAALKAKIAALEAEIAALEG

4H3664-AA = target: T22, 4H3664-AA; assay: two-hybrid library CCmax; settings: mean of both orientations
T22 chain: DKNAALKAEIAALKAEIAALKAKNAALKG

4H1198-AA = target: T23, 4H1198-AA; assay: two-hybrid library CCmax
T23 chain: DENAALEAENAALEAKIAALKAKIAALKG

4H55-AA = target: T24, 4H55-AA; assay: two-hybrid library CCmax; settings: mean of both orientations
T24 chain: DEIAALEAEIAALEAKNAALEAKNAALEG

4H3625-AA = target: T25, 4H3625-AA; assay: two-hybrid library CCmax; settings: mean of both orientations
T25 chain: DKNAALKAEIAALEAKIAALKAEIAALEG

4H2935-AA = target: T26, 4H2935-AA; assay: two-hybrid library CCmax; settings: mean of both orientations
T26 chain: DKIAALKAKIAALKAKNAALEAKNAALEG

4H2513-AA = target: T27, 4H2513-AA; assay: two-hybrid library CCmax; settings: mean of both orientations
T27 chain: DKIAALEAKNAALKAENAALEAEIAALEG

4H327-AA = target: T28, 4H327-AA; assay: two-hybrid library CCmax; settings: mean of both orientations
T28 chain: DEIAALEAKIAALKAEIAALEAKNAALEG

4H3605-AA = target: T29, 4H3605-AA; assay: two-hybrid library CCmax; settings: mean of both orientations
T29 chain: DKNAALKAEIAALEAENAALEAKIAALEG

4H4033-AA = target: T30, 4H4033-AA; assay: two-hybrid library CCmax; settings: mean of both orientations
T30 chain: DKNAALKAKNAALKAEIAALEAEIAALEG

4H2726-AA = target: T31, 4H2726-AA; assay: two-hybrid library CCmax; settings: mean of both orientations
T31 chain: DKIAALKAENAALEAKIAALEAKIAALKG

4H2608-AA = target: T32, 4H2608-AA; assay: two-hybrid library CCmax; settings: mean of both orientations
T32 chain: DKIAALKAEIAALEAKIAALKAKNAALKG

4H369-AA = target: T33, 4H369-AA; assay: two-hybrid library CCmax
T33 chain: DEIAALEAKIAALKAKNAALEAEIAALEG

4H341-AA = target: T34, 4H341-AA; assay: two-hybrid library CCmax
T34 chain: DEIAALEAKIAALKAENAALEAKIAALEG

4H2536-AA = target: T35, 4H2536-AA; assay: two-hybrid library CCmax; settings: mean of both orientations
T35 chain: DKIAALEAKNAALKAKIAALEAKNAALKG

4H2614-AA = target: T36, 4H2614-AA; assay: two-hybrid library CCmax; settings: mean of both orientations
T36 chain: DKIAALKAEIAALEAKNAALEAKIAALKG

4H1350-AA = target: T37, 4H1350-AA; assay: two-hybrid library CCmax; settings: mean of both orientations
T37 chain: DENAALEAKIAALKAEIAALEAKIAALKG

4H619-bA = target: T38, 4H619-bA; assay: two-hybrid library CCNG1
T38 chain: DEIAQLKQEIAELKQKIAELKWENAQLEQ

4H953-bN = target: T39, 4H953-bN; assay: two-hybrid library CCNG1
T39 chain: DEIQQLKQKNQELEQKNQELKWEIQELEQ

4H584-bA = target: T40, 4H584-bA; assay: two-hybrid library CCNG1
T40 chain: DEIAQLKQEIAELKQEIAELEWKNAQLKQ

4H906-bA = target: T41, 4H906-bA; assay: two-hybrid library CCNG1
T41 chain: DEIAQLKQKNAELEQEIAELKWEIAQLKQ

4H850-bA = target: T42, 4H850-bA; assay: two-hybrid library CCNG1
T42 chain: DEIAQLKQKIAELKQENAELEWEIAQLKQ

4H570-bA = target: T43, 4H570-bA; assay: two-hybrid library CCNG1
T43 chain: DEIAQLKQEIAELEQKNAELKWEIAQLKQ

4H626-bN = target: T44, 4H626-bN; assay: two-hybrid library CCNG1
T44 chain: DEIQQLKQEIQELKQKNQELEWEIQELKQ

4H1348-bN = target: T45, 4H1348-bN; assay: two-hybrid library CCNG1
T45 chain: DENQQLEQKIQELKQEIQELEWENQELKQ

4H3926-bN = target: T46, 4H3926-bN; assay: two-hybrid library CCNG1
T46 chain: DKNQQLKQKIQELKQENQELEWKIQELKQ

4H570-bN = target: T47, 4H570-bN; assay: two-hybrid library CCNG1
T47 chain: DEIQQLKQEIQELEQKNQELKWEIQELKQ

4H3462-bN = target: T48, 4H3462-bN; assay: two-hybrid library CCNG1
T48 chain: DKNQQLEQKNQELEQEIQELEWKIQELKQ

4H1899-bN = target: T49, 4H1899-bN; assay: two-hybrid library CCNG1
T49 chain: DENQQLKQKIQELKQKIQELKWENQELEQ

4H3817-bN = target: T50, 4H3817-bN; assay: two-hybrid library CCNG1
T50 chain: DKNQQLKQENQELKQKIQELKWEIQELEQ

4H591-bN = target: T51, 4H591-bN; assay: two-hybrid library CCNG1
T51 chain: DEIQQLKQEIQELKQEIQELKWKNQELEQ

4H850-bN = target: T52, 4H850-bN; assay: two-hybrid library CCNG1
T52 chain: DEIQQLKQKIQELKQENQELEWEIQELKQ

4H3497-bN = target: T53, 4H3497-bN; assay: two-hybrid library CCNG1
T53 chain: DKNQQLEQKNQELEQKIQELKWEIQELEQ

4H3277-bN = target: T54, 4H3277-bN; assay: two-hybrid library CCNG1
T54 chain: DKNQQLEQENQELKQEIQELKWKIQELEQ

4H1544-bN = target: T55, 4H1544-bN; assay: two-hybrid library CCNG1
T55 chain: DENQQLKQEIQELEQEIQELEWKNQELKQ

4H3175-bN = target: T56, 4H3175-bN; assay: two-hybrid library CCNG1
T56 chain: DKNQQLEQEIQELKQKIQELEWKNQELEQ

P6bH1 = target: T57, P6bH1; assay: two-hybrid library CCNG1
T57 chain: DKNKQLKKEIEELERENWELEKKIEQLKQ

4H1449-bN = target: T58, 4H1449-bN; assay: two-hybrid library CCNG1
T58 chain: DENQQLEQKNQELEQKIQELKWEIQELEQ

4H3858-bN = target: T59, 4H3858-bN; assay: two-hybrid library CCNG1
T59 chain: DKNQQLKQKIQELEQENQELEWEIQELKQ

4H3974-bN = target: T60, 4H3974-bN; assay: two-hybrid library CCNG1
T60 chain: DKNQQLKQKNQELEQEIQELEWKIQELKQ

4H3298-bN = target: T61, 4H3298-bN; assay: two-hybrid library CCNG1
T61 chain: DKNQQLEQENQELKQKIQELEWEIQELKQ

4H906-bN = target: T62, 4H906-bN; assay: two-hybrid library CCNG1
T62 chain: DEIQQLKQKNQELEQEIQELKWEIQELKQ

4H1373-bN = target: T63, 4H1373-bN; assay: two-hybrid library CCNG1
T63 chain: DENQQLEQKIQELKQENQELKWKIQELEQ

4H3613-bN = target: T64, 4H3613-bN; assay: two-hybrid library CCNG1
T64 chain: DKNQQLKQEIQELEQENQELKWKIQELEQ

4H1710-bN = target: T65, 4H1710-bN; assay: two-hybrid library CCNG1
T65 chain: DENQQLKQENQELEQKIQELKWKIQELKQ

4H3162-bN = target: T66, 4H3162-bN; assay: two-hybrid library CCNG1
T66 chain: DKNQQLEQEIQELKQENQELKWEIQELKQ

4H3628-bN = target: T67, 4H3628-bN; assay: two-hybrid library CCNG1
T67 chain: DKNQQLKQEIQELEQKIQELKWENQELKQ

4H1985-bN = target: T68, 4H1985-bN; assay: two-hybrid library CCNG1
T68 chain: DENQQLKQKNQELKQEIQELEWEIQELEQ

DKIAALKAEIAALEYENAALEAENAALEG [O11]
interaction score (O8): -2.51
interaction score (P3A-bS): 0.868
interaction score (O4): 1.77
interaction score (O16): -2.6
interaction score (O2): -2.18
interaction score (O7): -1.85
interaction score (O11): -2.47
interaction score (O12): 2
interaction score (O5): -2.06
interaction score (O15): -2.22
interaction score (O6): -2.37
interaction score (O14): -2.48
interaction score (O3): -1.74
interaction score (O13): -1.9
interaction score (O9): -2.14

DENAALEAENAALEAKIAALKAKIAALKG [4H1198-AA]
interaction score (4H1405-AA): -0.758
interaction score (4H3922-AA): 0.661
interaction score (4H2211-AA): -1.3
interaction score (4H662-AA): -1.15
interaction score (4H2238-AA): -0.785
interaction score (4H481-AA): 1.9
interaction score (4H3664-AA): 1.22
interaction score (4H1198-AA): -0.611
interaction score (4H55-AA): -0.467
interaction score (4H3625-AA): -0.0176
interaction score (4H2935-AA): -1.5
interaction score (4H2513-AA): 1.14
interaction score (4H327-AA): -0.574
interaction score (4H3605-AA): 0.0472
interaction score (4H4033-AA): 2.18
interaction score (4H2726-AA): -0.438
interaction score (4H2608-AA): 0.869
interaction score (4H369-AA): -1.45
interaction score (4H341-AA): -2.13
interaction score (4H2536-AA): -0.886
interaction score (4H2614-AA): -0.463
interaction score (4H1350-AA): 0.496

DEIAQLKQEIAELEQKNAELKWEIAQLKQ [4H570-bA]
interaction score (4H619-bA): -1.3
interaction score (4H953-bN): -0.0403
interaction score (O11): -0.882
interaction score (4H584-bA): -1.33
interaction score (4H906-bA): 0.277
interaction score (4H850-bA): 1.98
interaction score (4H570-bA): -0.223

DENQQLEQKIQELKQEIQELEWENQELKQ [4H1348-bN]
interaction score (4H626-bN): -0.135
interaction score (4H1348-bN): -1.55
interaction score (4H3926-bN): -0.478
interaction score (4H570-bN): 0.123
interaction score (4H3462-bN): -0.171
interaction score (4H1899-bN): -0.707
interaction score (4H3817-bN): -0.958
interaction score (4H591-bN): -1.4
interaction score (4H850-bN): 0.761
interaction score (4H3497-bN): -0.431
interaction score (4H3277-bN): -0.122
interaction score (4H1544-bN): -1.46
interaction score (4H3175-bN): -0.302
interaction score (P6bH1): -0.556
interaction score (4H1449-bN): -0.5
interaction score (4H3858-bN): -0.748
interaction score (4H3974-bN): 0.224
interaction score (4H3298-bN): 0.08
interaction score (4H906-bN): -0.116
interaction score (4H1373-bN): -0.955
interaction score (4H3613-bN): -0.0173
interaction score (4H1710-bN): -1.09
interaction score (4H3162-bN): -0.0481
interaction score (4H3628-bN): -0.12
interaction score (4H1985-bN): -0.781
